Biological target: Full-length fibronectin (UniProt P02751 32-2477)
Experiment: ELISA; solid-phase binding assay; FN-FL or FN70 coated on high-binding plates (25 μg/ml by the legend), blocked with 3% BSA in Buffer A; wild type or mutant His-HSP90α at varying concentrations added overnight at 4 °C; detected with anti-HSP90α antibody, HRP secondary, absorbance 450 nm
Settings: both partners purified

Chain of Full-length fibronectin (P02751 other isoform, or with tags, fused parts or gaps, chain 1 of 2): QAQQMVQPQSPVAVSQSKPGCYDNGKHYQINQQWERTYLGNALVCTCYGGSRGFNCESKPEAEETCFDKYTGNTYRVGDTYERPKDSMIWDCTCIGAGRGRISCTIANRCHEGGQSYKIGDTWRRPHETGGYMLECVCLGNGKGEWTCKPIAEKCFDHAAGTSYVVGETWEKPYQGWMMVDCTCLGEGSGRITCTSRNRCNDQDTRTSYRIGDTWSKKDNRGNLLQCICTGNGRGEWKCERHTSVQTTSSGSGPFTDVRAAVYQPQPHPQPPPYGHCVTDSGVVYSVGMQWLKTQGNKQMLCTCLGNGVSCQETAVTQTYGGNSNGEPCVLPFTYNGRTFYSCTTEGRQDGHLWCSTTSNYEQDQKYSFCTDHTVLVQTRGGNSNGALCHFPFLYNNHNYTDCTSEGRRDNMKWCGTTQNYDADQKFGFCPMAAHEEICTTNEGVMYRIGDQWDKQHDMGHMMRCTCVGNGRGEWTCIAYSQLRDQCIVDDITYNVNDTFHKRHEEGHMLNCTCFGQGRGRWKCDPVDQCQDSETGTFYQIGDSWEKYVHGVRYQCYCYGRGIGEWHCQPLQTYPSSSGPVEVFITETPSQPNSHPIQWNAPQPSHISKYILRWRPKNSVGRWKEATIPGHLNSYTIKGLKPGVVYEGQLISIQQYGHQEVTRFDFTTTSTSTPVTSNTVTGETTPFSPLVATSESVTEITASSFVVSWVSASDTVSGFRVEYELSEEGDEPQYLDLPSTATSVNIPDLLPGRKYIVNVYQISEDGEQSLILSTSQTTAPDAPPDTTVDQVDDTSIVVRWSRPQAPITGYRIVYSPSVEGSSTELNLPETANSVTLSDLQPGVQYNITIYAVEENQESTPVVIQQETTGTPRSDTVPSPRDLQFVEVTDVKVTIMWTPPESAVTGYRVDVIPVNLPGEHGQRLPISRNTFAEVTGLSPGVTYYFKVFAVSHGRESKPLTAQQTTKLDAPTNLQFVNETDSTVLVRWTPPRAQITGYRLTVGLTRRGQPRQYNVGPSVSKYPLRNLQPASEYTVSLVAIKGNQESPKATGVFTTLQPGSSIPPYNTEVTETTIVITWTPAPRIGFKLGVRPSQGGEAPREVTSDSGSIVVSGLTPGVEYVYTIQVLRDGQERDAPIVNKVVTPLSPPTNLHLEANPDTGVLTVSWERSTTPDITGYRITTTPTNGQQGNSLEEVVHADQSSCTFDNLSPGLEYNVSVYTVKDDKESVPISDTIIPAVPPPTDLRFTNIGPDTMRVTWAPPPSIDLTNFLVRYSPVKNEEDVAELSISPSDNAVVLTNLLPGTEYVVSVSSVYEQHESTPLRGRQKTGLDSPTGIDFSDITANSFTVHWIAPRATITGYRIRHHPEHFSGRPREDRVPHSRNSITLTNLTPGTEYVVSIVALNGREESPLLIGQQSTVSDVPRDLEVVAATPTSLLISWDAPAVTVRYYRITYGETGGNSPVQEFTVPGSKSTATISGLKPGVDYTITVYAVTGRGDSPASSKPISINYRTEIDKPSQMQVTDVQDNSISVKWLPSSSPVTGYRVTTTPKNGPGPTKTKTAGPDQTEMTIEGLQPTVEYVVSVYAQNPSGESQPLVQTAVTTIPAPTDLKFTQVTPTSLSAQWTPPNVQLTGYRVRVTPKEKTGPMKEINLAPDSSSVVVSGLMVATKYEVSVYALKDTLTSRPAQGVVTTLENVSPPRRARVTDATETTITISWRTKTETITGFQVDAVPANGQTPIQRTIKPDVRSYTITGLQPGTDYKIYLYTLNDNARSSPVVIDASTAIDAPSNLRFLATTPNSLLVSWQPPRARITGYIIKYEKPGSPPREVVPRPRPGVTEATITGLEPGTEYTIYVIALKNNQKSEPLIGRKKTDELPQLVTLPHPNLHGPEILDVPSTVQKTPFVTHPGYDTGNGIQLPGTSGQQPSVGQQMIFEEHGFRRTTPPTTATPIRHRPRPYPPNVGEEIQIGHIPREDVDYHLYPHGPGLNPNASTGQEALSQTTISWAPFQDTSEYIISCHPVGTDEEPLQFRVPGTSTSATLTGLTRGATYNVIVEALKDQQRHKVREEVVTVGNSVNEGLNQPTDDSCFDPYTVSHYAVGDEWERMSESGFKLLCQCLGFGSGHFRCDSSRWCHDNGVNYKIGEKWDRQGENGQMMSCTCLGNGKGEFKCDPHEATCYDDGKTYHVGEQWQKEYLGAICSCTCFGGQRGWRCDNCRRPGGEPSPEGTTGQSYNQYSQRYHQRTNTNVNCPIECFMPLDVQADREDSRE
Chain of Full-length fibronectin (P02751 other isoform, or with tags, fused parts or gaps, chain 2 of 2): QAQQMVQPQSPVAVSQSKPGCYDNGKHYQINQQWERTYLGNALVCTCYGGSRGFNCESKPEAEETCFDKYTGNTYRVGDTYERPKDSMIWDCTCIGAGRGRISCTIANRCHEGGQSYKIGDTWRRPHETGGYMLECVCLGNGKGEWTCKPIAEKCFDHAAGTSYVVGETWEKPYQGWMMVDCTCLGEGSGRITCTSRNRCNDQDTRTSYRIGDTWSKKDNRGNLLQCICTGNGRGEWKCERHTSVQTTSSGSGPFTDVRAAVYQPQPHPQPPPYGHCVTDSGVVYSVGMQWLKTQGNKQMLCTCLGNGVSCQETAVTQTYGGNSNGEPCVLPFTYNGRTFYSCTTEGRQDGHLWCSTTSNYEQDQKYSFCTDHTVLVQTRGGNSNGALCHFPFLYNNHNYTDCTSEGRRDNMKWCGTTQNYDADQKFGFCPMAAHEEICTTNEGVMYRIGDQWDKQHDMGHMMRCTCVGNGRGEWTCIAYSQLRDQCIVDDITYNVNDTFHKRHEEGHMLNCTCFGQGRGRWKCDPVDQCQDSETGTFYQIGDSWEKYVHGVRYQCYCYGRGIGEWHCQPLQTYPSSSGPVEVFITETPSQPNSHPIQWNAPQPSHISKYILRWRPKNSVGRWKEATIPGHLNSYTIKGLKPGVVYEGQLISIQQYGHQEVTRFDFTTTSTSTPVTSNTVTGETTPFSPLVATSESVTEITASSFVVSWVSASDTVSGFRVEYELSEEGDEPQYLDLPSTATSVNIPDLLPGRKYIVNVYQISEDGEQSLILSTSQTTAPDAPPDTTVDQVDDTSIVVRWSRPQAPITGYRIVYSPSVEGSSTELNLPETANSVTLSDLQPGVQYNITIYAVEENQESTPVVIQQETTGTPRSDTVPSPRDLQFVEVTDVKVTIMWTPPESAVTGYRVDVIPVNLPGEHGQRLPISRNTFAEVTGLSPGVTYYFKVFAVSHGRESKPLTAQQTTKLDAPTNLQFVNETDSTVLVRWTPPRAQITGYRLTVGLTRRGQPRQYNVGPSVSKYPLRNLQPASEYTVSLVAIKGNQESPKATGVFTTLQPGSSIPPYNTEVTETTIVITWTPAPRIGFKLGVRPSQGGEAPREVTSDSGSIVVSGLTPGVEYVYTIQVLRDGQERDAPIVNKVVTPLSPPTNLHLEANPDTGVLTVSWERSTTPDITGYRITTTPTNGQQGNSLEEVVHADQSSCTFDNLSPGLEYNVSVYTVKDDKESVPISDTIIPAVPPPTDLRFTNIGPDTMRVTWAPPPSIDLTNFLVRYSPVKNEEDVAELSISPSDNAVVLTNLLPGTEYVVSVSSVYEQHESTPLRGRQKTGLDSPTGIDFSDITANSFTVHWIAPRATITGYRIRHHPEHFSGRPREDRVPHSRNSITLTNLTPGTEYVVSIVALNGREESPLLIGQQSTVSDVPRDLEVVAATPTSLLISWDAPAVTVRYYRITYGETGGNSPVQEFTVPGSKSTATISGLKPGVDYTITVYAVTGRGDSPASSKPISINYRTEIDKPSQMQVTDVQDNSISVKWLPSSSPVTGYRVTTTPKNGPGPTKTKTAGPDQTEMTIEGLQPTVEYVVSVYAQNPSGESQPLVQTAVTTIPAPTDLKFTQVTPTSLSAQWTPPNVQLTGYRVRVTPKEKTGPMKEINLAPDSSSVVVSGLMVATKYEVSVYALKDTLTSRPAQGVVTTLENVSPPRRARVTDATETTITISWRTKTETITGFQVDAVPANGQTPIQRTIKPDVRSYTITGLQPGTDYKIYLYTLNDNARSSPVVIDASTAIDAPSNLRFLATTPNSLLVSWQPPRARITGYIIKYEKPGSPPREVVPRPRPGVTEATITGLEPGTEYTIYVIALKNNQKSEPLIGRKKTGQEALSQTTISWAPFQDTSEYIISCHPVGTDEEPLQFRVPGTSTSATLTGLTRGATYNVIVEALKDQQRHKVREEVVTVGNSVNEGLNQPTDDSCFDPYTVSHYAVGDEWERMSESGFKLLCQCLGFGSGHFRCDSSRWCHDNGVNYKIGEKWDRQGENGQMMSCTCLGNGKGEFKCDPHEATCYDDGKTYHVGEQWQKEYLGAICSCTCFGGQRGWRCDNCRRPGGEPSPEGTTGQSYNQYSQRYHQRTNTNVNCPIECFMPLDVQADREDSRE

Binder | percent reduction in binding against wild type His-HSP90α [%]
His-HSP90α-H450A (natural protein, Heat shock protein HSP 90-alpha, human, point mutant of the full-length His-HSP90α) not shown | ~25
His-HSP90α-F352A (natural protein, Heat shock protein HSP 90-alpha, human, point mutant of the full-length His-HSP90α) not shown | ~40
His-HSP90α-Y528A (natural protein, Heat shock protein HSP 90-alpha, human, point mutant of the full-length His-HSP90α) not shown | ~25
His-HSP90α-R620A (natural protein, Heat shock protein HSP 90-alpha, human, point mutant of the full-length His-HSP90α) not shown | ~25
His-HSP90α-E353A (natural protein, Heat shock protein HSP 90-alpha, human, point mutant of the full-length His-HSP90α) not shown | ~25

From paper PMC10746679, “Mutations F352A and Y528A in human HSP90α reduce fibronectin association and fibrillogenesis in cell-derived matrices” (Cell Stress & Chaperones, 2023)
